Target: the molecule itself
Test: cryo-EM structure

B1: human GPR155 (residues 1-870), construct without the eGFP tag (receptor, UniProt Q7Z3F1 1-870, looked up)
chain: MNSNLPAENLTIAVNMTKTLPTAVTHGFNSTNDPPSMSITRLFPALLECFGIVLCGYIAGRANVITSTQAKGLGNFVSRFALPALLFKNMVVLNFSNVDWSFLYSILIAKASVFFIVCVLTLLVASPDSRFSKAGLFPIFATQSNDFALGYPIVEALYQTTYPEYLQYIYLVAPISLMMLNPIGFIFCEIQKWKDTQNASQNKIKIVGLGLLRVLQNPIVFMVFIGIAFNFILDRKVPVYVENFLDGLGNSFSGSALFYLGLTMVGKIKRLKKSAFVVLILLITAKLLVLPLLCREMVELLDKGDSVVNHTSLSNYAFLYGVFPVAPGVAIFATQFNMEVEIITSGMVISTFVSAPIMYVSAWLLTFPTMDPKPLAYAIQNVSFDISIVSLISLIWSLAILLLSKKYKQLPHMLTTNLLIAQSIVCAGMMIWNFVKEKNFVGQILVFVLLYSSLYSTYLWTGLLAISLFLLKKRERVQIPVGIIIISGWGIPALLVGVLLITGKHNGDSIDSAFFYGKEQMITTAVTLFCSILIAGISLMCMNQTAQAGSYEGFDQSQSHKVVEPGNTAFEESPAPVNEPELFTSSIPETSCCSCSMGNGELHCPSIEPIANTSTSEPVIPSFEKNNHCVSRCNSQSCILAQEEEQYLQSGDQQLTRHVLLCLLLIIGLFANLSSCLWWLFNQEPGRLYVELQFFCAVFNFGQGFISFGIFGLDKHLIILPFKRRLEFLWNNKDTAENRDSPVSEEIKMTCQQFIHYHRDLCIRNIVKERRCGAKTSAGTFCGCDLVSWLIEVGLASDRGEAVIYGDRLVQGGVIQHITNEYEFRDEYLFYRFLQKSPEQSPPAINANTLQQERYKEIEHSSPPSHSPKT
stoichiometry N: 2

Reference: paper doi:10.1101/2024.09.24.614577 (bioRxiv, 2024)
